B1: TAVO186187 after digestion by MMP2 (antibody)
heavy: EVQLVESGGGLVQPGGSLRLSCAASGFDFADYAMHWVRQAPGKGLEWVSAITWNGGHTDYADSVKGRFTISRDNSKNTLYLQMNSLRAEDTAVYYCAKVSYLSTASSLDYWGQGTLVTVSSASTKGPSVFPLAPSSKSTSGGTAALGCLVKDYFPEPVTVSWNSGALTSGVHTFPAVLQSSGLYSLSSVVTVPSSSLGTQTYICNVNHKPSNTKVDKKVEPKSCDKTHTCPPCPAPPAAGPSVFLFPPKPKDTLMISRTPEVTCVVVDVSHEDPEVKFNWYVDGVEVHNAKTKPREEQYNSTYRVVSVLTVLHQDWLNGKEYKCKVSNKALPAPIEKTISKAKGQPREPQVYTLPPSRDELTKNQVSLTCLVKGFYPSDIAVEWESNGQPENNYKTTPPVLDSDGSFLLYSKLTVDKSRWQQGNVFSCSVLHEALHSHYTQKSLSLSPGK
light: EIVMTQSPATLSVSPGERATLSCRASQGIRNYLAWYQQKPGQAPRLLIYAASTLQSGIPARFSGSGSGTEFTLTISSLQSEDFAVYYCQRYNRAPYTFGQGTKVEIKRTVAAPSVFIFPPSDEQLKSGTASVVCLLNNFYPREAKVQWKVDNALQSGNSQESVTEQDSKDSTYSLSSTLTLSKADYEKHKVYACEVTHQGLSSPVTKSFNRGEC
notes: also called digested shielded antibody; digested TAVO186187; not shown: remnant of the protease-cleavable linker left after cleavage
B2: TAVO198199 after digestion by uPA (antibody)
heavy: B1 heavy
light: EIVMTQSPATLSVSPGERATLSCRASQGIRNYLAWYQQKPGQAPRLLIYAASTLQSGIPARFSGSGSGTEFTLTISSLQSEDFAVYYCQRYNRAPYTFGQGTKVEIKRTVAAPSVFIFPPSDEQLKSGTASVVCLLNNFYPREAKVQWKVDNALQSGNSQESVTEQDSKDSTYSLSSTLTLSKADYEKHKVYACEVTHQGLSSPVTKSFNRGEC
notes: also called digested shielded antibody; digested TAVO198199; not shown: remnant of the protease-cleavable linker left after cleavage
B3: TAVO196197 after digestion by MMP3 (antibody)
heavy: B1 heavy
light: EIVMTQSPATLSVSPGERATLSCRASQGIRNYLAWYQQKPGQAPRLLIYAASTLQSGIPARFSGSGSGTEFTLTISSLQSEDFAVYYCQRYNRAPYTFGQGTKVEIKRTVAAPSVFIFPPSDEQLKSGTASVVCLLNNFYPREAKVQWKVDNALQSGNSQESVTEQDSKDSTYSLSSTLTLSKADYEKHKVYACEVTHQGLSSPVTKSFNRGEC
notes: also called digested shielded antibody; digested TAVO196197; not shown: remnant of the protease-cleavable linker left after cleavage
B4: TAVO188189 after digestion by MMP2 (antibody)
heavy: B1 heavy
light: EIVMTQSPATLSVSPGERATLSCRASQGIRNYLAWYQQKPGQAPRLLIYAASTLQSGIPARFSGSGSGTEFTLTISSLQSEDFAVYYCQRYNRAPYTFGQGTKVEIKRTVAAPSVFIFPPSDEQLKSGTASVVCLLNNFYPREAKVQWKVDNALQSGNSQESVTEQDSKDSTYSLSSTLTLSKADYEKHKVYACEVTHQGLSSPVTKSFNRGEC
notes: also called digested shielded antibody; digested TAVO188189; not shown: remnant of the protease-cleavable linker left after cleavage
B5: TAVO192193 after digestion by MMP2 (antibody)
heavy: B1 heavy
light: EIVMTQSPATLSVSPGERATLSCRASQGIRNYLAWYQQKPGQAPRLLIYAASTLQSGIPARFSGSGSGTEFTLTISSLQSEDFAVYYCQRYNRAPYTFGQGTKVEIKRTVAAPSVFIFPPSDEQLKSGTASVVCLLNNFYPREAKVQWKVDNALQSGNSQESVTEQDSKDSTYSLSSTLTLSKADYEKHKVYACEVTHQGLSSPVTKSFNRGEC
notes: also called digested shielded antibody; digested TAVO192193; not shown: remnant of the protease-cleavable linker left after cleavage
B6: TAVO190191 after digestion by MMP2 (antibody)
heavy: B1 heavy
light: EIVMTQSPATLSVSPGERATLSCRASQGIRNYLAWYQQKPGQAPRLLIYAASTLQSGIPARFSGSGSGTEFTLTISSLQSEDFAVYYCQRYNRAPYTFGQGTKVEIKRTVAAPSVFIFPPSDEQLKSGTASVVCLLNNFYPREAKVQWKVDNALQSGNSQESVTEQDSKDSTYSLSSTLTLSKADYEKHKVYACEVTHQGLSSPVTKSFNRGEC
notes: also called digested shielded antibody; digested TAVO190191; not shown: remnant of the protease-cleavable linker left after cleavage
B7: TAVO194195 after digestion by MMP2 (antibody)
heavy: B1 heavy
light: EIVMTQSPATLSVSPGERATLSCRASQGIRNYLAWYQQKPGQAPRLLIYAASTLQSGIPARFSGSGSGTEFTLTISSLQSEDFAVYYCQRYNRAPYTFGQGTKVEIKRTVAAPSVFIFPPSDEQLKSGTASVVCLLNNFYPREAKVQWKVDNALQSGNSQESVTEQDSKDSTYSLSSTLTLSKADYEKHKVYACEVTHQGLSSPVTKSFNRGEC
notes: also called digested shielded antibody; digested TAVO194195; not shown: remnant of the protease-cleavable linker left after cleavage
B8: TAVO271272 after digestion by MMP2 (antibody)
heavy: B1 heavy
light: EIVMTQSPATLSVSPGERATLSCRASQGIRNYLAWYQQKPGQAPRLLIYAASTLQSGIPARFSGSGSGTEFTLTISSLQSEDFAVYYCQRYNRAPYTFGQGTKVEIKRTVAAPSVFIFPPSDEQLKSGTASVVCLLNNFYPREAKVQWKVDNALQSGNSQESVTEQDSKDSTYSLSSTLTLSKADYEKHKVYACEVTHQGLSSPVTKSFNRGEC
notes: the antibody part is that of TAVO167127 (EAC271/EAC272 are identical to EAC190/EAC191 but for the IGF2 mutations); not shown: remnant of the protease-cleavable linker left after cleavage

What follows are binders tested against T1, recombinant human TNFα (human, UniProt P01375 77-233) (assay: ELISA, recombinant human TNFα coated at 1 µg/mL, after protease cleavage).
T1 construct: Bought protein
T1 sequence (P01375 77-233 limits assumed): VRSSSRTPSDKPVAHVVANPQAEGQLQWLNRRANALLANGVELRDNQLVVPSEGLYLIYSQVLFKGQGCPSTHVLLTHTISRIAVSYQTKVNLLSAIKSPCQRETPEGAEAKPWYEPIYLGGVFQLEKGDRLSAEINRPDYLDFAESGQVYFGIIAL
Description: (§1) In this assay, 1 μg/mL recombinant human TNFα (R&D systems) was coated on an ELISA plate. Increasing concentrations of anti-TNFα shielded antibodies were applied on the plate and their binding to the recombinant human TNFα was detected by HRP-conjugated anti-human secondary antibody.

Row | binding result | Binder
1 | binds | B1
2 | binds | B2
3 | binds | B3
4 | binds | B4
5 | binds | B5
6 | binds | B6
7 | binds | B7

The binders below were run against T1, recombinant human TNFα (assay: ELISA on human TNFα, after MMP2 cleavage).
Description: as §1

Row | binding result | Binder
8 | binds | B8

From patent US20220119549A1 (TAVOTEK BIOTHERAPEUTICS HONG KONG, published 2022)
